Laboratory results published in PMC3020944, “Structure-Activity Relationship of Cinnamaldehyde Analogs as Inhibitors of AI-2 Based Quorum Sensing and Their Effect on Virulence of Vibrio spp”.

Molecular target: T1, GST-LuxR (Vibrio harveyi, UniProt P21308 1-205)
T1 sequence: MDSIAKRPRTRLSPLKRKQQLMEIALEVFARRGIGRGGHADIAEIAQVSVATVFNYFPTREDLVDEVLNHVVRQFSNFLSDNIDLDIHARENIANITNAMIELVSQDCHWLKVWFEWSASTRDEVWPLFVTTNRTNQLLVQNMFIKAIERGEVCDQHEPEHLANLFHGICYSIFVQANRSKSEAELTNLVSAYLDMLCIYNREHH
Test: fluorescence anisotropy; no inhibitor; Kd value only in Fig. 2B; 30°C; fluorescence polarisation, excitation 480 nm, emission 535 nm; binding buffer, salt and pH not given (as in ref 12); duplex annealed in NaCl-Tris-EDTA
Details: protein: recombinant; tags: GST; chain copies: 2; label: 5' fluorescein on strand 1; blunt

B1: V. harveyi consensus LuxR binding sequence (dsDNA)
DNA 1: TATTGATAAATTTATCAATAA
DNA 2: TTATTGATAAATTTATCAATA
  binding result: binds
